Laboratory results taken from the supplement of paper PMC10567573.
± gives the standard deviation.

Experiment: protein stability index of a GFP-peptide fusion (GPS, HEK-293T) (PSI 1-6); higher = more stable
[1] = treatment: DMSO, c terminus: a fixed tail appended
[2] = treatment: MLN4924 1 uM, 8 h, c terminus: a fixed tail appended
[3] = treatment: DMSO, c terminus: native
[4] = treatment: MLN4924 1 uM, 8 h, c terminus: native
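Also: 24-mer peptide tiles fused after GFP, lentivirally expressed, FACS-sorted into six equal bins by GFP/DsRed ratio, decoded by Illumina sequencing, PSI is the read-weighted mean bin number.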

Sequence | protein stability index [1] | protein stability index [2] | protein stability index [3] | protein stability index [4]
RDRQQAPGLGQESKAPGSCDPGTD [TLE6] | 5.45 ± 0.12 | 5.46 ± 0.16 |  | 
LTKLLASKSKEEVSSLISEKTNGA [FEM1C] | 4.07 ± 0.22 | 4.38 ± 0.26 |  | 
SKKGLSFFAFEHSEEYQQAQHKFL [TCF25] | 2.85 ± 0.21 | 3 ± 0.15 |  | 
MQGAYCTFPASVLAPVPTHSTVSE [DUSP5] | 3.47 ± 0.2 | 3.61 ± 0.17 |  | 
PIRNRAFYMEEGVPYCERDYEKMF [PDLIM7] | 3.3 ± 0.31 | 3.43 ± 0.34 |  | 
LQSISWDPEDFEDAWKRPDALPGQ [TLE6] | 3.98 ± 0.29 | 3.87 ± 0.43 |  | 
EWNQKRARKAMRNGISPIIIDNTN [N4BP2L1] | 2.65 ± 0.16 | 3.02 ± 0.55 |  | 
LKFDNSYSLWRSKSVYYRVYYTR [ACBD3] |  |  | 2.52 ± 0.6 | 2.29 ± 0.71
WALGVCNNSWIRKNSTMVNSEDIF [TRIM43] | 2.03 ± 0.52 | 2.12 ± 0.31 |  | 
TFYVRFFLTYVPLLGLKAFLGLFF [FADS1] | 2.93 ± 0.3 | 3.24 ± 0.29 |  | 
SRPAVGPPQPGCPAFIIVKLSPLR [ZSWIM9] | 2.59 ± 0.19 | 2.33 ± 0.15 |  | 
TQARQVMEREFNNLLALGTDRKLD [PPFIA4] | 4.21 ± 0.52 | 4.12 ± 0.38 |  | 
GSVAVVEAECEKSSATTYFWYREA [SLC6A17] | 2.81 ± 0.48 | 2.62 ± 0.35 |  | 
PKCSCGQLAAVHLSKSRTDYQPTQ [RNF180] | 2.55 ± 0.17 | 2.63 ± 0.35 |  | 
TSDSEGAHVNTLHSGTKRDPKEDV [PHTF1] | 5.51 ± 0.22 | 5.54 ± 0.21 |  | 
YAKVKEFIVDILQFLDIGPDVTRV [MATN2] | 3.84 ± 0.32 | 3.81 ± 0.084 |  | 
IQKNYECANFGDQGITMGCWDMYR [LOXL2] | 2.06 ± 0.45 | 2.13 ± 0.25 |  | 
SDRFGRKKVYLTGFALDILFAIAN [SLC22A15] | 2.51 ± 0.64 | 2.17 ± 0.41 |  | 
RYLFLDGDSHYEIEIVHISTVQIL [ZFYVE21] | 2.89 ± 0.26 | 2.61 ± 0.4 |  | 
IPLYPLGCLAEAVSVIQSIPIFNE [HACD3] | 2.7 ± 0.47 | 2.97 ± 0.81 |  | 
EHRHAAAALAAMNGRKIMGKEVKV [TIA1] | 3.88 ± 0.23 | 3.85 ± 0.27 |  | 
KCSDCGKAFLTKTMLIVHHRTHTG [ZNF649] | 2.84 ± 0.27 | 3.05 ± 0.45 |  | 

Sequence | protein stability index [1] | protein stability index [2] | protein stability index [3] | protein stability index [4]
ALPVPVIVSNFNYFYHRETENEEQ [KCNA4] | 3.54 ± 0.15 | 3.57 ± 0.17 |  | 
AVFAVSAVVHEYALAVCLSFFYPV [SOAT1] | 3.23 ± 0.37 | 3.07 ± 0.23 |  | 
GEAMLANFKPRGYSECIVTVGGEE [GAN] | 4.38 ± 0.42 | 4.18 ± 0.41 |  | 
AGIMLLALVCLLSCLLPSSEAKLY [SPACA3] | 2.94 ± 0.12 | 3.25 ± 0.48 |  | 
CRRCYDWIHRPGCRCKNSNTVYCK [SPRY1] | 2.82 ± 0.089 | 3.05 ± 0.13 |  | 
KMKKLGQAMEEDLIVGLQGMDLNL [HDAC6] | 3.86 ± 0.24 | 3.5 ± 0.43 |  | 
NLMSLLMAVRPSLPESGLLSVLQI [FANCE] | 3.09 ± 0.51 | 2.78 ± 0.55 |  | 
HPLPTVIIVNLLWFIHLVFVVLAF [TMEM192] | 3.37 ± 0.063 | 3.02 ± 0.7 |  | 
RGFVFGGRYRDARMNDLHYLNLDT [KLHDC2] | 2.71 ± 0.33 | 2.59 ± 0.35 |  | 
FSTRALVLSILHATLPGIFMLLLI [SOAT2] | 3.16 ± 0.35 | 3.37 ± 0.52 |  | 
TSDGYTALHLAARNGHLATVKLLV [RIPK4] | 2.35 ± 0.57 | 2.25 ± 0.33 |  | 
KYDMEVRVQKTSKELEDMNQKLFD [TNNI2] | 4.81 ± 0.13 | 4.73 ± 0.2 |  | 
EPQTEHQQESESEIDSVPKTQSEL [MIA2] | 5.46 ± 0.13 | 5.59 ± 0.21 |  | 
DEDLRRQMQDDEQKTRLLEDSVSR [PALM] | 5.46 ± 0.32 | 5.31 ± 0.38 |  | 
AVGNSSGSGQNEESPRKRKKATEA [FBXO28] | 4.95 ± 0.34 | 5.29 ± 0.27 |  | 
YQNSIDDRLLVERIFAQYMVPHNL [PDS5B] | 2.21 ± 0.55 | 2.46 ± 0.79 |  | 
CQDCGRAFNQNSSLGRHKRTHTGE [ZNF8] | 3.73 ± 0.44 | 3.42 ± 0.17 |  | 
ISVEGINHDIRTANDGDYWRLLNP [CPXM2] | 2.64 ± 0.44 | 2.7 ± 0.44 |  | 
DEPGKGGFWRIDPQYAERLLSGAF [FOXJ1] | 2.6 ± 0.25 | 2.73 ± 0.34 |  | 
TKPSFESGRRGPPPPPRSRGPPRG [RBMX] | 4.74 ± 0.33 | 4.81 ± 0.29 |  | 
TTFRGHTGGVTALCWDPVQRVLFS [WDFY2] | 2.25 ± 0.23 | 2.26 ± 0.23 |  | 
EVEKRGINGSEGDGAEIAEKFVFF [DYNC2LI1] | 3.8 ± 0.33 | 4.41 ± 0.34 |  | 

Sequence | protein stability index [1] | protein stability index [2] | protein stability index [3] | protein stability index [4]
TDGRPQDSVAEVAAKARDTGILIF [MATN2] | 2.86 ± 0.23 | 3.12 ± 0.34 |  | 
SRQGSAEALRALQEGLWLDRGTRV [PKD2L1] | 3.6 ± 0.37 | 3.28 ± 0.27 |  | 
ITERDKRPEGYNLKDEEGKLKDLS [PPP2R2C] | 5.51 ± 0.23 | 5.54 ± 0.13 |  | 
LGDMQTAREGAGLVVASGVIYCLG [KLHL12] | 2.47 ± 0.45 | 2.29 ± 0.8 |  | 
LMLGKTSISDLSEHVFDLILELYN [PDS5B] | 2.59 ± 0.33 | 2.44 ± 0.47 |  | 
GEGLNVIQQTTRYFSTPQTMDLFL [NANOGP8] | 2.09 ± 0.34 | 2.32 ± 0.057 |  | 
KMKGFGFWPAKVMQKEDNQVDVRF [ZMYND11] | 3.11 ± 0.39 | 3.11 ± 0.34 |  | 
ELSEVLENQSSQAELKEAVEEPSS [CHGA] | 5.78 ± 0.21 | 5.67 ± 0.34 |  | 
WATIEGLVELLQPFKQVAEMLSAS [ZBED1] | 3.01 ± 0.76 | 2.94 ± 0.8 |  | 
PSLEDISCNTWPSMPSYSSCTVTT [TBX5] | 3.18 ± 0.21 | 3.41 ± 0.24 |  | 
RHCPLPQATFWGLVTPRSWSCHT [SOAT2] |  |  | 2.55 ± 0.64 | 2.44 ± 0.62
VEMLCDQAWGSMLEVPAGSRLNLT [CCDC3] | 2.75 ± 0.28 | 2.96 ± 0.31 |  | 
LMKHKSRKRRLFCTMEPEPVQPGM [TRIM35] | 3.51 ± 0.49 | 3.43 ± 0.17 |  | 
IELANIRDEVAFHTAKCEKLQKEK [MTUS2] | 4.31 ± 0.3 | 4.46 ± 0.44 |  | 
HRVLQRLEQRRQQASEREAPSIEQ [FCHSD1] | 5.09 ± 0.25 | 4.99 ± 0.26 |  | 
WLHCVCVVGFDLELGQAVEVIYPQ [DENND6A] | 2.66 ± 0.95 | 2.46 ± 0.085 |  | 
LRVLGSMCQRLRSMQYNGSYFDRG [DFFB] | 2.14 ± 0.29 | 2.23 ± 0.17 |  | 
ELRRQAPPPPPPSRGGPPPPPPPP [WASL] | 4.49 ± 0.44 | 4.64 ± 0.09 |  | 
IKIRPGEFEQFESTIGFKLPNHRA [EPB41L3] | 2.64 ± 0.03 | 2.75 ± 0.63 |  | 
KKPPEESTCFERPCFKWYTSPWSE [ADAMTSL2] | 2.67 ± 0.14 | 2.88 ± 0.42 |  | 
PAAGESLSGTRESLAQGPDAATTD [TBC1D10A] | 5.36 ± 0.32 | 5.29 ± 0.13 |  | 
